Experimental data: article PMC7857395 (Science (New York, N.y.), 2020)

Molecular target: SARS-CoV RBD (SARS-CoV (P59594; strain ), UniProt P59594)
Assay: ELISA
Conditions: both partners purified

B1: S2M11 human monoclonal antibody (IgG) (antibody, V domains shown)
VH: EVQLVQSGAEVKKPGASVKVSCKASGYTFTGYYMHWVRQAPGQGLEWMGWINPISSGTSYAQTFQGRVTMTSDTSITTAYMELSRLRSDDTAVYYCARAAPFYDFWSGYSYFDYWGQGTLVTVSS
VL: not shown
notes: also called S2M11 IgG; S2M11 mAb; copies: 2 + 2
- binding result: no binding

B2: S2E12 human monoclonal antibody (IgG) (antibody, V domains shown)
VH: not shown
VL: DIVLTQTPGTLSLSPGERATLSCRASQSVSSSYLAWYQQKPGQAPRLLIYGASSRATGIPDRFSGSGSGTDFTLTISRLEPEDFAVYYCQQYVGLTGWTFGQGTKVEIK
notes: also called S2E12 IgG; S2E12 mAb; copies: 2 + 2
- binding result: no binding
